This is an account of results in patent US20250361298A1 (CARTOGRAPHY BIOSCIENCES, published 2025).

Test [1] concerns the target T1, LY6G6D cyclic peptide Ac-RDC*YLGDLC*NS-PEG2-3-mercaptopropionate (bridge 3-9 via CH2; not fully specified; printed as Ac-RDC*YLGDLC*NS-PEG2-3-mercaptopropionate).
T1 construct: Represents the most membrane-proximal stretch of LY6G6D; also called octomer cyclic peptide
T1 peptide: Ac-RDCYLGDLCNS-{PEG2′-3‑mercaptopropionate}
Briefly: flow binding assay on cyclic-peptide beads.

Test [2] addresses T2, Human LY6G6D ectodomain fused to mouse IgG2A Fc (monovalent display, knob-in-hole) (human, biotinylated for BLI capture (site not stated)).
T2 chain: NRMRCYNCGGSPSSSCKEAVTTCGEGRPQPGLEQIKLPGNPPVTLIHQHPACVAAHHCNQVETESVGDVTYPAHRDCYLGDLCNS
Briefly: BLI, chain shuffle round 1; antigen not named in the table (LY6G6D ectodomain as in Example 3).

In test [3] the target is T2, Human LY6G6D ectodomain fused to mouse …. Briefly: SPR, Biacore 8K+, LY6G6D-mouse Fc captured by anti-mouse antibody on CM5, antibody as analyte 50-0.7813 nM, 25 C. Here is the method: (§1) SPR multipoint kinetic analyses against human and cynomolgus monkey LY6G6D was also performed. LY6G6D binding kinetics were performed via surface plasmon resonance (SPR) on a Biacore 8K+. A Mouse Antibody Capture Kit, type 2 (Cytiva 29215281) was used for amine coupling to a CM5 sensor chip (BR100530) and the immobilization was performed exactly according to the manufacturer's standard settings. To begin an SPR run, 7 startup cycles were run following chip immobilization to establish sensor stability. In these, LY6G6D-mouse Fc fusion antigen was first flowed into just flow cell 2 at 10 uL/min at a 5 nM concentration with a 120 sec contact time. 1×HBS-EP+ buffer, pH 7.6 was then flowed at 30 μL/min with a 420 sec contact time into the chip. Finally regeneration solution (10 mM Glycine-HCl pH 1.7) was flowed at 30 uL/min with a 120 sec contact time.
(§2) After this point, 16 analysis cycles were run, 8 first with human LY6G6D-mouse Fc fusion antigen and 8 next for cyno LY6G6D-mouse Fc fusion antigen. In both antigen formats, the antigen was captured at 10 uL/min at a 5 nM concentration diluted into 1×HBS-EP+ buffer, pH 7.6 with a 120 sec contact time. Next, selected antibodies diluted into 1×HBS-EP+ buffer, pH 7.6 were run as the analytes across a 7-point dilution series, 50 nM to 0.7813 nM with two-fold dilutions. A contact time of 300 sec followed by dissociation time of 1200 sec at a flow rate of 30 μL/min was used. Regeneration solution (10 mM Glycine-HCl pH 1.7) was flowed at 30 μL/min with a 120 sec contact time. Finally, a wait step of 60 sec with flow rate of 30 μL/min 1×HBS-EP+ buffer, pH 7.6 was used to re-establish sensor stability. These SPR binding studies were performed at 25° C.
(In general: SPR reads the build-up and loss of mass on a sensor chip optically.)

The target of test [4] is T3, Cynomolgus LY6G6D ectodomain fused to mouse IgG2A Fc (monovalent display, knob-in-hole) (cynomolgus, UniProt O95868 20-104 (human entry)).
T3 construct: Same design as the human construct; Tags are not described; also called cyno LY6G6D-mouse Fc fusion antigen; cynomolgus monkey LY6G6D
T3 chain: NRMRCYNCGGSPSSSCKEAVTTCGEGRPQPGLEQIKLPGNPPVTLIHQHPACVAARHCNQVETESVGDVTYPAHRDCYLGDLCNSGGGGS
Kind of test: SPR, Biacore 8K+, cyno LY6G6D-mouse Fc captured by anti-mouse antibody on CM5, antibody as analyte 50-0.7813 nM, 25 C. Here is the method:
as §1, §2

Positions count from the first letter of the chain named. Starred links: 1 amine or outer side, 2 acyl side, 3 side chain; linkers in the order of their positions; H or OH if unused. Positions of bridges follow the written chain, without caps; N, C: chain ends. Primed or numbered codes have the meaning given here. PEG2′ = PEG2 spacer at the C-terminus, followed by 3-mercaptopropionate; CH2 = C([*:1])[*:2]

The term Kd denotes the free concentration of one partner at which half of the binding sites on the other are occupied at equilibrium, for simple one-to-one binding. In general, koff refers to the first-order rate constant of dissociation. A low value points to slow dissociation. Broadly, the kon is the second-order rate constant of association. Higher therefore signals faster complex formation.

B1: CB21-522 (antibody, V domains shown)
VH: EVQLVQSGAEVKKPGASVKVSCKASGYTFTGYFIHWVRQAPGQGLEWMGWINPNSGGTYYAQEFQGRVTMTRDTSISTAYMELIRLRSDDSAVYYCARDISLVGDYWGQGTLVTVSS
VL: DVVMTQSPLSLPVTLGQPASISCRSSQSLVYSDGNTYLNWFQQRPGQSPRRLIYKVSNRDSGVPERFSGIGSGTDFTLEISRVEAEDVGVYYCMQGSHWPLTFGGGTKVEIK
notes: Human Fc formats; monovalent antibody in BLI
Take B1: in test [1], the binding result is on record as “binds”.

B2: CB21-512 (antibody, V domains shown)
VH: EVQLVESGGGVVQPGRSLRLSCAASGFTFSSYGMHWVRQAPGKGLEWVAVLWYDGINKNYADSVKGRFAISRDNSKNTLYLQMNSLRVEDTAVYFCVRVQGDYWGQGTLVTVSS
VL: DIQMTQSPSSLSASVGDRVTITCRASQGIRNDLTWYQQKPGKAPKRLIYDTSSLQSGVPSRFSGSRSGTEFTLTISSLQPEDFASYFCLQHNIYPFTFGQGTKLEIK
notes: as for B1
For the molecule B2, in test [1], the binding result was “binds”.

B3: CB21-470 (antibody, V domains shown)
VH: B2 VH with S30N, F95Y
VL: B2 VL with I93S
notes: as for B1
As for B3, the binding result in test [1] is on record as “binds”.

B4: CB21-502 (antibody, V domains shown)
VH: B2 VH with A61V
VL: B2 VL with R66G, E70D
notes: as for B1
Consider B4, for which, in test [1], the binding result is given as “binds”.

B5: CB21-469 (antibody, V domains shown)
VH: EVQLVESGGGLVQPGGSLRLSCAASGFTFSSYAMNWVRQAPGKGLEWVSGISGNGGRIYYADSVKGRFTISRDNSKNTLYLQMNSLRVEDTAVYYCAKDLDVWGKGTTVTVSS
VL: DVVMTQTPLSSPVTLGQSASISCRSSQSLVHSDGNTYLNWLHQRPGQPPRLLIYKISNRFSGVPDRFSGSGAGTDFTLKISRVEAEDVGVYYCMQATQFPLTFGGGTKLEIK
notes: Cloned into knob/hole human Fc and light chain vectors; IgG and bispecific TCE formats were made; BLI used a monovalent antibody format
As to B5, the binding result in test [1] is on record as “binds”.

B6: CP1479 (heavy chain from CB21-513, light chain from CB21-469) (antibody, V domains shown)
VH: B5 VH with E6D, Q13E, N35T, N54S, R57V, I58T, Y59D, L81M, V88A, D101G
VL: B5 VL
notes: Chain-shuffled antibody
Regarding B6, in test [2], the affinity, expressed as Kd, was 16.5 nM; the koff came to 0.00053 s⁻¹; the kon turned out to be 32200 M⁻¹ s⁻¹.

B7: CP1471 (heavy chain from CB21-469, light chain from CB21-500) (antibody, V domains shown)
VH: B5 VH
VL: B5 VL with S18P, S28N, H42Q
notes: Chain-shuffled antibody
On to B7, for which, in test [2], the Kd amounted to 12.7 nM, the koff came out at 0.0017 s⁻¹ and the kon is 134000 M⁻¹ s⁻¹.

B8: CP1478 (heavy chain from CB21-500, light chain from CB21-513) (antibody, V domains shown)
VH: B5 VH with A40V, W47G, I51M, N54S, I70M, T78M, L79V, V88A, V93L
VL: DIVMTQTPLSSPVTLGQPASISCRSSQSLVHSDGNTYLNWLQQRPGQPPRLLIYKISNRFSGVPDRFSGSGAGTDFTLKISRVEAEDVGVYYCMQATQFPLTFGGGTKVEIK
notes: Chain-shuffled antibody
In test [2], B8 yielded a Kd of 5.35 nM, a koff of 0.000705 s⁻¹ and a kon of 132000 M⁻¹ s⁻¹.

B9: CP1474 (heavy chain from CB21-498, light chain from CB21-500) (antibody, V domains shown)
VH: B5 VH with V2M, W47C, D62E, N77S, L79F, V88A
VL: B5 VL with S18P, S28N, H42Q
notes: Chain-shuffled antibody
In test [2], B9 came in with a Kd of 0.699 nM, a koff of 9.87e-05 s⁻¹ and a kon of 141000 M⁻¹ s⁻¹.

B10: CB21-498-142 (antibody, V domains shown)
VH: B5 VH with W47G, N54S, D62E, T69Q, N77S, L79F, V88A
VL: B5 VL with G34A, A72S
In test [3], B10 gave a Kd of 3.2 nM, a koff of 0.00031 s⁻¹ and a kon of 96700 M⁻¹ s⁻¹. Further, in test [4], the Kd is 5.57 nM, the koff stood at 0.000448 s⁻¹ and the kon came to 80500 M⁻¹ s⁻¹.

B11: CP1473 (heavy chain from CB21-498, light chain from CB21-469) (antibody, V domains shown)
VH: B5 VH with V2M, W47C, D62E, N77S, L79F, V88A
VL: B5 VL
notes: Chain-shuffled antibody
In test [2], B11 gave a dissociation constant (Kd) of 0.554 nM, a koff of 8.4e-05 s⁻¹ and a kon of 152000 M⁻¹ s⁻¹.

B12: CB21-513 (antibody, V domains shown)
VH: B5 VH with E6D, Q13E, N35T, N54S, R57V, I58T, Y59D, L81M, V88A, D101G
VL: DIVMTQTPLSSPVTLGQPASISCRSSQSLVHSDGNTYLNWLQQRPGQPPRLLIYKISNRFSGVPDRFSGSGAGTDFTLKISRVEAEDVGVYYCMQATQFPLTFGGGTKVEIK
notes: as for B1
Consider B12, for which, in test [1], the binding result is listed as “binds”.

B13: CP1476 (heavy chain from CB21-500, light chain from CB21-469) (antibody, V domains shown)
VH: B5 VH with A40V, W47G, I51M, N54S, I70M, T78M, L79V, V88A, V93L
VL: B5 VL
notes: Chain-shuffled antibody
On to B13, for which, in test [2], binding was characterised by a dissociation constant (Kd) of 3.15 nM, the koff turned out to be 0.000413 s⁻¹ and the kon stood at 131000 M⁻¹ s⁻¹.

B14: CP1475 (heavy chain from CB21-498, light chain from CB21-513) (antibody, V domains shown)
VH: B5 VH with V2M, W47C, D62E, N77S, L79F, V88A
VL: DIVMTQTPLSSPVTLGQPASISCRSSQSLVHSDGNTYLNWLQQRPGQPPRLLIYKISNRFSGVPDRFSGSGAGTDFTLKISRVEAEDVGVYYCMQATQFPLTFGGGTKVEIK
notes: Chain-shuffled antibody
With B14, in test [2], binding was characterised by a dissociation constant (Kd) of 0.91 nM, the koff was found to be 0.000105 s⁻¹ and the kon is 116000 M⁻¹ s⁻¹.

B15: CP1481 (heavy chain from CB21-513, light chain from CB21-500) (antibody, V domains shown)
VH: B5 VH with E6D, Q13E, N35T, N54S, R57V, I58T, Y59D, L81M, V88A, D101G
VL: B5 VL with S18P, S28N, H42Q
notes: Chain-shuffled antibody
Turning to B15, in test [2], the Kd stood at 17.6 nM, the koff was 0.000264 s⁻¹ and the kon turned out to be 15000 M⁻¹ s⁻¹.

B16: CB21-500 (antibody, V domains shown)
VH: B5 VH with A40V, W47G, I51M, N54S, I70M, T78M, L79V, V88A, V93L
VL: B5 VL with S18P, S28N, H42Q
notes: as for B1
For B16, the binding result in test [1] is “binds”.

B17: CB21-498 (antibody, V domains shown)
VH: B5 VH with V2M, W47C, D62E, N77S, L79F, V88A
VL: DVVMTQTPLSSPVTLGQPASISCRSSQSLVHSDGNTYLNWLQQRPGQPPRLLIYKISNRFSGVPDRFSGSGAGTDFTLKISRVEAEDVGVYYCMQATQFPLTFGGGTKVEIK
notes: as for B1
B17: the binding result in test [1] is reported as “binds”.

B18: CB21-471 (antibody, V domains shown)
VH: EVQLVESGGGVVQPGRSLRLSCAASGFTFSSYGMHWVRQVPGKGLEWVAVIWYDGSNKDYVDSVKGRFTISRDNSKNTLYLQMNSLRAEDTAVYYCARPGEGDYWGQGTLVTVSS
VL: DIQMTQSPSSLSASVGDRVTITCRASQGIRNDFGWYQQKPGKAPKRLIYGASSLQSGVPSRFSGSGSGTEFTLTISSLQPEDFATYYCLQQNSYPWTFGQGTKVEIK
notes: as for B1
Turning to B18, the binding result in test [1] is on record as “binds”.

B19: CB21-499-177 (antibody, V domains shown)
VH: B18 VH with V40A, G55A, D59E, V61A, D62P, V93I
VL: B18 VL with I29V, Y36F, V104L
Turning to B19, in test [3], the Kd is 0.385 nM, the koff came to 7.12e-05 s⁻¹ and the kon was determined as 185000 M⁻¹ s⁻¹. In test [4], this molecule registered a Kd of 0.9 nM, a koff of 0.000149 s⁻¹ and a kon of 166000 M⁻¹ s⁻¹.

B20: CB21-499 (antibody, V domains shown)
VH: B18 VH with V40A, V61A, V93I
VL: B18 VL with I29V, Y36F, V104L
notes: as for B1
Consider B20, for which the binding result in test [1] is “binds”.

B21: CB21-477 (antibody, V domains shown)
VH: B18 VH with V40A, V61A
VL: B18 VL with F33L, K42R, G50A
notes: as for B1
Take B21: the binding result in test [1] is “binds”.
